Tests used:
[1] = biological target: human CACNG1, cell surface-expressed (human) (UniProt Q06432)
[2] = biological target: human CACNG1, cell surface-expressed (human) (UniProt Q06432); remark: listed apart in the source
[3] = biological target: human CACNG1, cell surface-expressed (human) (UniProt Q06432); remark: listed apart in the source

human CACNG1, cell surface-expressed (human), sequence (Q06432 whole entry): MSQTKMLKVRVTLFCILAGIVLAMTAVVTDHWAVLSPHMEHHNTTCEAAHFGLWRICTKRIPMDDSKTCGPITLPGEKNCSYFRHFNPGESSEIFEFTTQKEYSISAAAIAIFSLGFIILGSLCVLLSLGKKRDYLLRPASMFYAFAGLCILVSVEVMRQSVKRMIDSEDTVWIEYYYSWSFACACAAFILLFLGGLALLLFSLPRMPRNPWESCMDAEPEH

EC50; androgen receptor luciferase reporter (RLU), hCACNG1.AR.Luc LNCaP cells, 48 hours [1]: 6.95 nM | EC50; androgen receptor luciferase reporter (RLU), hCACNG1.AR.Luc LNCaP cells, 24 hours [2]: 7.83 nM | EC50; androgen receptor luciferase reporter (RLU), hCACNG1.AR.Luc LNCaP cells, 72 hours [3]: 5.44 nM
B1: REGN14571-M3004 (antibody, from a related filing, V domains shown, part only)
VH: QVQLQESGPGLVKPSETLSLTCTVSGDSINNYYWTWLRQPPGKGLEWIGYIYYSGSANYNPSLKSRVTISVDTSKNQFSLKLNSVTAADTAVYYCARGAVKYFRHWGQGTLVTVSS
VL: EIVLTQSPGTLSLSPGERATLSCRASQTINHNNLAWYQQRPGQAPRLLIYGASNRATAIPDRFSGSGSGTDFTLTISRLEPEDFEVYSCQQYGSLPLTFGGGTKVEIKR
